# From the emibetuzumab library of Makowski et al. (2022)
# B1: VH:VL chains; a variant is named by its letters at X, in order (parent)
# chain 1: QVQLVQSGAEVKKPGASVKVSCKASGYTFTDYXMHWVRQAPGQGLEWMGXVNPNXXXTTYNQKFEGRVTMTTDTSTSTAYMELRSLRSDDTAVYYCARXNXLDXWGQGTTVTVSS
# chain 2: DIQMTQSPSSLSASVGDRVTITCSVSSSVSSIYLHWYQQKPGKAPKLLIYSTSNLASGVPSRFSGSGSGTDFTLTISSLQPEDFATYYCQVYSGYPLTFGGGTKVEIK
# Variants of: B1
# Assay: yeast display scFab, FACS + sequencing
# In short: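 For the non-specific binding call, a heavy-chain CDR mutant scFab library on the yeast surface was FACS-sorted and samples from two replicates were deep sequenced. Cells were labelled with anti-Myc and either biotinylated ovalbumin (260 μg/mL in PBSB, 3 h, room temperature) or soluble membrane proteins (130 μg/mL, 20 min on ice), with gates on the top 25% and bottom 10% of binders. With membrane protein and ovalbumin samples pooled, a sequence in ≥3 of 4 positive samples and no negatives was scored positive, and the converse rule scored negatives.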
row,Variant,non-specific binding call
1,FRRRGALD,binds
2,YRRKGASV,binds
3,VRTGAVGD,binds
4,FRTGDAWV,no binding
5,YRRRGAVY,binds
6,YRRRGAVA,binds
7,YRRRGAVD,binds
8,YRRRGAVF,binds
9,YRRRGDGY,binds
10,YRRRGDGV,binds
11,YRRRGDGD,binds
12,SRRRGALD,binds
13,YRRRGAAF,binds
14,YRRRGAAA,binds
15,YRRRGAAD,binds
16,YRRRGAAY,binds
17,YRRRGAAS,binds
18,VRRRGALA,binds
19,VRRRGALD,binds
20,YRRRGVGV,binds
21,YRRRGVGD,binds
22,YRRRGVGY,binds
23,YRRRGVGA,binds
24,YRRRGVGS,binds
25,VRTAASGD,binds

row,Variant,non-specific binding call
1,YRRRGYWA,binds
2,VRRRGAAD,binds
3,YRRRGSLF,binds
4,YRRRGSLV,binds
5,YRRRGSLD,binds
6,YRRRGSLS,binds
7,YRRRGSLA,binds
8,YRRRGSLY,binds
9,YRRKDALA,binds
10,SRTGSDVD,no binding
11,YRTGAASD,binds
12,YRRRGYSD,binds
13,YRRRGYSS,binds
14,YRRRGASV,binds
15,YRRRGASD,binds
16,YRRRGASS,binds
17,YRRRGASF,binds
18,YRRRGASA,binds
19,VRTEDSSV,no binding
20,VRTEDDWS,no binding
21,VRTEDDWF,no binding
22,VRTEDDWY,no binding
23,VRTEDDWV,no binding
24,FRRRGSAD,binds
25,FRRRGSAA,binds

row,Variant,non-specific binding call
1,YRRKGALV,binds
2,VRTEDSLV,no binding
3,VRTEDSLD,no binding
4,YRTGAALS,binds
5,VRRRSSLA,binds
6,YRTGGAWD,binds
7,DRTGDSSS,no binding
8,YRTGDSSA,no binding
9,YRRRSAGA,binds
10,FRRRGAVD,binds
11,FRRRGAVA,binds
12,FRTGDSWD,no binding
13,DRTGDDVA,no binding
14,DRTGDDVY,no binding
15,YRTKAAVD,binds
16,YRTGDDVF,no binding
17,YRRRGFAV,binds
18,YRRRGFAA,binds
19,VRTKDFSY,no binding
20,FRRTDFVA,binds
21,ARRRGSAA,binds
22,YRTGGSSV,binds
23,FRRRDAAF,binds
24,FRTKDDVY chain 1 E46K,binds
25,YRRRGVAD,binds

row,Variant,non-specific binding call
1,YRRRGVAA,binds
2,DRRKAFSA,binds
3,VRTEDFGV,no binding
4,FRRRGSGD,binds
5,YRRKGAAY,binds
6,YRRRGVSA,binds
7,FRTGDDAV,no binding
8,FRTGDDAA,no binding
9,DRRRGALD,binds
10,VRRRGSGD,binds
11,YRRRGDWY,binds
12,YRRRGDWA,binds
13,YRRRGDWD,binds
14,YRRRGVWA,binds
15,FRTGGSAD,binds
16,VRTADDGA,no binding
17,YRTEDVGA,binds
18,FRTGDDLV,no binding
19,VRTEDDLV,no binding
20,FRTGDAVF,no binding
21,FRTGDAVS,no binding
22,FRRTDFVA chain 1 C22Y,binds
23,YRRRGYGD,binds
24,YRRRSAVA,binds
25,VRRRGSLF,binds

row,Variant,non-specific binding call
1,YRRRGSWV,binds
2,YRRRGSWA,binds
3,YRRRGSWD,binds
4,YRRRGSWS,binds
5,FRTGDSVD,no binding
6,YRRGTSVD,binds
7,VRTGDSLD,no binding
8,VRRTDFVA,binds
9,VRTEDASF,no binding
10,YRRRSSVD,binds
11,VRTGDDGV,no binding
12,VRRKSSSV,binds
13,YRRRSSLA,binds
14,VRTEDDAS,no binding
15,ARRRGAAA,binds
16,VRTEDDVD,no binding
17,VRTEDDVF,no binding
18,VRTEDDVA,no binding
19,VRTEDDVY,no binding
20,VRTKAVAY,binds
21,YRTEGAVA,binds
22,FRTGDSLV,no binding
23,YRRKGSSA,binds
24,YRRKGSSS,binds
25,YRTGGAGD,no binding

row,Variant,non-specific binding call
1,SRRRGSAA,binds
2,FRTKAAVY,binds
3,FRRRGSSD,binds
4,ARRRGAWY,binds
5,FRRRGSLV,binds
6,FRRRGSLY,binds
7,YRTAGSSD,binds
8,YRTADVGV,binds
9,FRTEGSAD,binds
10,YRRRGSGA,binds
11,YRRRGSGV,binds
12,YRRRGSGY,binds
13,YRRRGSGS,binds
14,YRRRGSGF,binds
15,YRRRTAAV,binds
16,YRRKGAGD,binds
17,FRTEGSGY,binds
18,VRRRGAGV,binds
19,VRRRGAGD,binds
20,YRTGDSAA,binds
21,SRRRGAWY,binds
22,YRRRGDAA,binds
23,YRRRGDAD,binds
24,VRTEDSGD,no binding
25,FRRRGDWY,binds

row,Variant,non-specific binding call
1,FRTGDDSF,no binding
2,YRRRGAGF,binds
3,YRRRGAGD,binds
4,YRRRGAGY,binds
5,YRRRGAGA,binds
6,YRRRGAGV,binds
7,YRRKGSGY,binds
8,YRRKGSGA,binds
9,YRRGSVGV,binds
10,VRTEDAWV,no binding
11,VRTEDAWA,no binding
12,YRRRGVVV,binds
13,YRRRGSAF,binds
14,YRRRGSAS,binds
15,YRRRGSAD,binds
16,ARRRGSGA,binds
17,FRTGDDWV,no binding
18,ARRTDVAD,binds
19,YRTADDWV,binds
20,YRTAGSGD,binds
21,YRTAGSGV,binds
22,YRTGTAGF,binds
23,YRRRGDVY,binds
24,YRRRGDVV,binds
25,YRRRGDVD,binds

row,Variant,non-specific binding call
1,YRRRGYLV,binds
2,VRRTSAAS,binds
3,YRRRGFWY,binds
4,YRTGASSD,binds
5,FRTGSAWF,binds
6,YRTGGSLD,binds
7,YRTGDSGD,no binding
8,VRRRGAVV,binds
9,YRRRGDLD,binds
10,VRRRGSAF,binds
11,VRTKADAV,no binding
12,YRRKGDAD,binds
13,FRRKDDWA,binds
14,YRRRGFVD,binds
15,YRRRGFVV,binds
16,YRRRGFVA,binds
17,FRTADVGV,binds
18,YRRRGALY,binds
19,YRRRGALF,binds
20,YRRRGALS,binds
21,YRRRGALA,binds
22,YRRKGSVD,binds
23,FRRRGAAD,binds
24,FRRRGAAA,binds
25,YRRRGSSD,binds

row,Variant,non-specific binding call
1,YRRRGSSF,binds
2,YRRRGSSS,binds
3,YRRRGSSA,binds
4,YRRRGAWD,binds
5,YRRRGAWV,binds
6,YRRRGAWF,binds
7,YRRRGAWS,binds
8,YRRRGAWA,binds
9,YRRGSYVY,binds
10,YRTGGSGA,binds
11,YRTGGSGD,binds
12,YRTGAAAD,binds
13,FRTGDSAS,no binding
14,FRTGGAVA,binds
15,YRRRGSVD,binds
16,YRRRGSVA,binds
17,YRRRGSVV,binds
18,YRRRGSVS,binds
19,YRRRGSVF,binds
20,VRRRGSWV,binds
21,DRRRGSGA,binds
22,YRRRGYAA,binds
23,VRRKDFLA,binds
24,YRTAGAGD,binds
25,YRTAGAGV,binds

row,Variant,non-specific binding call
1,YRTGAAGV,binds
2,VRTGGAAA,binds
3,YRRRGYVF,binds
4,YRRRGYVD,binds
5,YRRRGYVV,binds
6,YRRRGYVA,binds
7,VRTADVGV,binds
8,YRRRSSSS,binds
9,VRTGDSAY,no binding
10,VRTEDALV,no binding
11,VRTEDALD,no binding
12,FRTGDDGA,no binding
13,VRTEDSWS,no binding
14,VRTEDSWA,no binding
15,YRRRGFGD,binds
16,YRRRGFGV,binds
17,YRRRGFGY,binds
18,YRRRGFGS,binds
19,YRRRGFGA,binds
20,YRRRDSSA,binds
21,YRTAGAAD,binds
22,YRTKASLD,binds
23,FRRRGAWA,binds
24,FRRRGAWY,binds
25,FRTGDAGA,no binding
